Assay results: US20260008862A1, “Bispecific Anti-BCMA x Anti-CD3 Antibodies and Uses Thereof” (Regeneron Pharmaceuticals, Inc., priority 2018, published 2026)

How the values were obtained:
[1] = biological target: T1, surface BCMA on H929 cells (Homo sapiens, UniProt Q02223); assay: FACS surface BCMA after overnight incubation, NCI-H929; format: cell-based; conditions: range over detecting anti-BCMA antibodies
T1 construct: human cell lines which express endogenous BCMA (e.g., NCI-H929); endogenous in cells; host or cells: multiple myeloma cell lines H929
Procedure: (§1) Flow cytometric analysis was utilized to determine the impact of overnight incubation of multiple myeloma cell lines with anti-BCMA antibodies on the level of surface BCMA. […] After 18 hours, wells were washed with cold FACS wash (PBS+1% filtered FBS) and resuspended in 667 nM of the same anti-BCMA antibody in cold stain buffer (Miltenyi 130-091-221) for 30 minutes on ice. After incubation, the cells were washed twice with cold FACS wash (PBS+1% filtered FBS) and bound antibody was detected by incubating with the appropriate anti-human secondary antibody (anti-hIgG or anti-HIS) on ice for an additional 30-45 minutes. After incubation, cells were washed, re-suspended in 200 μL cold PBS containing 1% filtered FBS and analyzed by flow cytometry on a BD FACS Canto II. Fold increase in staining was calculated by dividing the MFI of stained cells previously incubated overnight in BCMA abs or DAPT by the MFI of stained cells that were incubated overnight in media only.

[2] = biological target: surface BCMA on Molp8 cells (Homo sapiens, UniProt Q02223); assay: FACS surface BCMA after overnight incubation, Molp8; format: cell-based; conditions: range over detecting anti-BCMA antibodies
Procedure: as §1

[3] = biological target: T2, surface BCMA on U266 cells (Homo sapiens, UniProt Q02223); assay: FACS surface BCMA after overnight incubation, U266; format: cell-based; conditions: range over detecting anti-BCMA antibodies
T2 construct: human cell lines which express endogenous BCMA; endogenous in cells; host or cells: multiple myeloma cell lines U266
Procedure: as §1

[4] = biological target: surface BCMA on MM1.S cells (Homo sapiens, UniProt Q02223); assay: FACS surface BCMA after overnight incubation, MM1S; format: cell-based; conditions: MM.1 S
Procedure: as §1

human BCMA-MMH = biological target: T3, human BCMA-MMH (Homo sapiens, UniProt Q02223); assay: SPR (Biacore 4000) binding kinetics to human BCMA-MMH; conditions: 25° C.
T3 construct: (human BCMA-MMH); myc-myc-hexahistidine (C); made in house
Procedure: (§2) The CM5 Biacore sensor surface was derivatized by amine coupling with a monoclonal mouse anti-human Fc antibody (GE, #BR-11008-39) to capture purified anti-BCMA mAbs and anti-BCMA×anti-CD3 bispecific mAbs. All Biacore binding studies were performed in a buffer composed of 0.01 M HEPES pH 7.4, 0.15M NaCl, 3 mM EDTA, 0.05% v/v Surfactant P20 (HBS-ET running buffer). […] Antigen samples were then injected over the anti-BCMA and anti-BCMA×anti-CD3 bispecific mAbs captured surfaces at a flow rate of 30 μL/minute. Antibody-reagent association was monitored for 5 minutes while dissociation in HBS-ET running buffer was monitored for 10 minutes. All of the binding kinetics experiments were performed at 25° C. Kinetic association (ka) and dissociation (kd) rate constants were determined by fitting the real-time sensorgrams to a 1:1 binding model using Scrubber 2.0c curve fitting software. Binding dissociation equilibrium constants (KD) and dissociative half-lives (t½) were calculated from the kinetic rate constants as: […]

human BCMA-MFC = biological target: T4, human BCMA-MFC (Homo sapiens, UniProt Q02223); assay: SPR (Biacore 4000) binding kinetics to human BCMA-MFC; conditions: 25° C.
T4 construct: (human BCMA-MFC); made in house
Procedure: as §2

mouse BCMA-MFC = assay: SPR (Biacore 4000) binding kinetics to mouse BCMA-MFC; conditions: 25° C.
Procedure: as §2

monkey BCMA-MMH = assay: SPR (Biacore 4000) binding kinetics to monkey BCMA-MMH; conditions: 25° C.; 90 nM antigen
Procedure: as §2

monkey BCMA-MFC = assay: SPR (Biacore 4000) binding kinetics to monkey BCMA-MFC; conditions: 25° C.
Procedure: as §2

monkey BCMA-MFC, sequence (as listed by the source): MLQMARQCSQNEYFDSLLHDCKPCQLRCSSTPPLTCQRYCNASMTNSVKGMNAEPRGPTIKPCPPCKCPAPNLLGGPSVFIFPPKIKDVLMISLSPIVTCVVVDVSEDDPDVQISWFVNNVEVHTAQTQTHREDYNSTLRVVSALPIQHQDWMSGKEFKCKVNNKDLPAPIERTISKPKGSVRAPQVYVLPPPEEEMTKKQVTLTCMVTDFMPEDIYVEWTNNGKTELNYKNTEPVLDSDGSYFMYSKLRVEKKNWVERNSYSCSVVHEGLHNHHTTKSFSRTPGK
T3 sequence (Q02223 with tags, fused parts or gaps): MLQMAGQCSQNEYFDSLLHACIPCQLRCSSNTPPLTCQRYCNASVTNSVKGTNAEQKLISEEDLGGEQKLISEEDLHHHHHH
T4 sequence (Q02223 with tags, fused parts or gaps): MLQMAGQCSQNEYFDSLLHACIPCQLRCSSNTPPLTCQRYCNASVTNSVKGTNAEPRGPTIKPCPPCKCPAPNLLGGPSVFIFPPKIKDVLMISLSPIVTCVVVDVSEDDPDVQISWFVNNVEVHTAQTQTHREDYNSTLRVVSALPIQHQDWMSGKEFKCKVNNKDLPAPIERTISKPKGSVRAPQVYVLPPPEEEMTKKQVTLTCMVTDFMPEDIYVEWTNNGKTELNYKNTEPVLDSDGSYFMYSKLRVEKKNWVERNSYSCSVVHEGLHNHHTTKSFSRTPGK
mouse BCMA-MFC, sequence (as listed by the source): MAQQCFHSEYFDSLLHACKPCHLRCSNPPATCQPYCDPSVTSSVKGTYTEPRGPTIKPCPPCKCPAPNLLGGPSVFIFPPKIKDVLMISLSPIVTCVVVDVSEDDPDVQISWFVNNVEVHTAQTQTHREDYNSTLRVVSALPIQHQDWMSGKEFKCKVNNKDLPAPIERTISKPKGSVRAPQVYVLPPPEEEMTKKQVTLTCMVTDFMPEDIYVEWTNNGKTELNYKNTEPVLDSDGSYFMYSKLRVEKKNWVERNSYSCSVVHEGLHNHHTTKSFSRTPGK
monkey BCMA-MMH, sequence (as listed by the source): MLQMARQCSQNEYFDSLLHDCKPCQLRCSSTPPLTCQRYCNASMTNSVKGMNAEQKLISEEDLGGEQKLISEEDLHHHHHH
surface BCMA on MM1.S cells, sequence (Q02223 whole entry): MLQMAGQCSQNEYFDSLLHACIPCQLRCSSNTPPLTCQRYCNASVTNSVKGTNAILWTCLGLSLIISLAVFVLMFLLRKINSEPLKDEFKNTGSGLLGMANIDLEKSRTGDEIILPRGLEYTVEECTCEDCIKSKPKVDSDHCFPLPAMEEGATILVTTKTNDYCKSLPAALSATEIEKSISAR
T1 sequence (Q02223 whole entry): as above
surface BCMA on Molp8 cells, sequence (Q02223 whole entry): as above
T2 sequence (Q02223 whole entry): as above

Molecule	fold increase in MFI of BCMA over cells incubated in media only [1]	fold increase in MFI of BCMA over cells incubated in media only [2]	fold increase in MFI of BCMA over cells incubated in media only [3]	fold increase in MFI of BCMA over cells incubated in media only [4] [fold]	ka (human BCMA-MMH) [M⁻¹ s⁻¹]	kd (human BCMA-MMH) [s⁻¹]	ka (human BCMA-MFC) [M⁻¹ s⁻¹]	kd (human BCMA-MFC) [s⁻¹]	ka (mouse BCMA-MFC) [M⁻¹ s⁻¹]	kd (mouse BCMA-MFC) [s⁻¹]	90 nM mfBCMA.mmh Bind (RU) (monkey BCMA-MMH)	ka (monkey BCMA-MFC) [M⁻¹ s⁻¹]	kd (monkey BCMA-MFC) [s⁻¹]
C[C@H](NC(=O)Cc1cc(F)cc(F)c1)C(=O)N[C@H](C(=O)OC(C)(C)C)c1ccccc1 [DAPT]	2.3-4 fold	2.4-8.6 fold	5.3-9.0 fold	11.9	–	–	–	–	–	–	–	–	–
mAb16711: anti-BCMA antibody, HCVR/LCVR SEQ ID NOs 2/10 (antibody, V domains shown) VH: QVQLVESGGGVVQPGRSLRLSCAASGFTFSTYGIHWVRQAPGKGLEWVAVILHDGSSNYYAESVKGRFIISRDNSKNTLYLQMNSLRAEDTALYYCTKRYSEAAGPNWFDPWGQGTLVTVSS VL: DIQMTQSPSSVSASVGDRVTITCRASRGISSWLAWYQQKPGKAPKLLIHAASSLQSGVPSRFSGSGSGTDFTLTISSLQPEDFATYYCQQAISFPFTFGPGTKVDIK	–	–	–	–	2.01e+06	0.00347	1.85e+06	0.00019	1.07e+06	0.0011	–	–	–
REGN4515: anti-BCMA antibody, HCVR/LCVR SEQ ID NOs 50/58 (antibody, V domains shown) VH: QVQLVESGGGLVKPGGSLRLSCAASGFTFSDYYISWIRQAPGKGLEWVSYISSSGSSIKYADSVKGRFTISRDNAKNSLYLQMNSLRAEDTAVYYCAREGGNYGMDVWGQGTTVTVSS VL: DIQMTQSPSSVSASVGDRVTITCRASQGINNWLVWYQQKPGKAPKLLIYAATSLQSGVPSRFSGSGSGTDFTLTISSLQPEDFATYYCQQANSFPPTFGQGTKLEIK	–	–	–	–	869000	0.00247	1.41e+06	8.95e-05	947000	0.00418	1.9	2.13e+06	0.00716
REGN4514: anti-BCMA antibody, HCVR/LCVR SEQ ID NOs 34/42 (antibody, V domains shown) VH: EVQLVESGGGLVQPGRSLRLSCAASGFTFDDYAMHWVRQAPGKGLEWVSGISWNSGNMGYADSVKGRFTISRDNAKNSLFLQMHSLRAEDTAFYYCAKVRLTAFDFWGQGTLVTVSS VL: DIQMTQSPSSLSASVGDRVTITCRTSQSIGNYLNWFQQKPGKAPKLLIYTASSLQNGVPSRFTGSGSGTDFTLTISSLQPEDFVIYYCQQSFSTPYTFGQGTKLEIK	–	–	–	–	1.06e+06	0.00285	1.07e+06	4.53e-05	397000	0.000269	1.1	492000	0.00724
